# B1: CDC25A (parent)
# chain: TVAGKHQDLKYISPEIMASVLNGK
# Variants of: B1
# Assay: protein stability index of a GFP-peptide fusion (GPS, HEK-293T) (PSI 1-6); higher = more stable
# Settings: c terminus: a fixed tail appended
# 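Note: lentivirally expressed fusions sorted by FACS into six bins by GFP to DsRed ratio, PSI derived from sequencing read proportions per bin multiplied by bin number.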
row,Variant,protein stability index
1,TVAGKHQDLFYISPEIMASVLNGK [K10F],1.78
2,TVAGKHQDLGYISPEIMASVLNGK [K10G],3.44
3,TVAGKHQDLHYISPEIMASVLNGK [K10H],2.88
4,TVAGKHQDLIYISPEIMASVLNGK [K10I],1.69
5,TVAGKHQDLLYISPEIMASVLNGK [K10L],1.9
6,TVAGKHQDLMYISPEIMASVLNGK [K10M],2.69
7,TVAGKHQDLNYISPEIMASVLNGK [K10N],3.34
8,TVAGKHQDLPYISPEIMASVLNGK [K10P],3.21
9,TVAGKHQDLQYISPEIMASVLNGK [K10Q],2.85
10,TVAGKHQDLRYISPEIMASVLNGK [K10R],2.8
11,TVAGKHQDLSYISPEIMASVLNGK [K10S],2.99
12,TVAGKHQDLTYISPEIMASVLNGK [K10T],3.31
13,TVAGKHQDLVYISPEIMASVLNGK [K10V],2.24
14,TVAGKHQDLWYISPEIMASVLNGK [K10W],1.62
15,TVAGKHQDLYYISPEIMASVLNGK [K10Y],1.76
16,TVAGKHQDLKAISPEIMASVLNGK [Y11A],3.29
17,TVAGKHQDLKCISPEIMASVLNGK [Y11C],3.32
18,TVAGKHQDLKDISPEIMASVLNGK [Y11D],4.38
19,TVAGKHQDLKEISPEIMASVLNGK [Y11E],4.09
20,TVAGKHQDLKFISPEIMASVLNGK [Y11F],2.77
21,TVAGKHQDLKGISPEIMASVLNGK [Y11G],3.87
22,TVAGKHQDLKHISPEIMASVLNGK [Y11H],3.73
23,TVAGKHQDLKIISPEIMASVLNGK [Y11I],3.52
24,TVAGKHQDLKKISPEIMASVLNGK [Y11K],3.53

row,Variant,protein stability index
1,TVAGKHQDLKLISPEIMASVLNGK [Y11L],3.26
2,TVAGKHQDLKMISPEIMASVLNGK [Y11M],3.16
3,TVAGKHQDLKNISPEIMASVLNGK [Y11N],3.86
4,TVAGKHQDLKPISPEIMASVLNGK [Y11P],3.95
5,TVAGKHQDLKQISPEIMASVLNGK [Y11Q],3.47
6,TVAGKHQDLKRISPEIMASVLNGK [Y11R],3.59
7,TVAGKHQDLKSISPEIMASVLNGK [Y11S],3.71
8,TVAGKHQDLKTISPEIMASVLNGK [Y11T],3.79
9,TVAGKHQDLKVISPEIMASVLNGK [Y11V],3.29
10,TVAGKHQDLKWISPEIMASVLNGK [Y11W],2.78
11,TVAGKHQDLKYASPEIMASVLNGK [I12A],3.49
12,TVAGKHQDLKYCSPEIMASVLNGK [I12C],3.23
13,TVAGKHQDLKYDSPEIMASVLNGK [I12D],4.16
14,TVAGKHQDLKYESPEIMASVLNGK [I12E],3.83
15,TVAGKHQDLKYFSPEIMASVLNGK [I12F],2.94
16,TVAGKHQDLKYGSPEIMASVLNGK [I12G],3.82
17,TVAGKHQDLKYHSPEIMASVLNGK [I12H],3.29
18,TVAGKHQDLKYKSPEIMASVLNGK [I12K],3.83
19,TVAGKHQDLKYLSPEIMASVLNGK [I12L],3.16
20,TVAGKHQDLKYMSPEIMASVLNGK [I12M],3.48
21,TVAGKHQDLKYNSPEIMASVLNGK [I12N],3.46
22,TVAGKHQDLKYPSPEIMASVLNGK [I12P],3.57
23,TVAGKHQDLKYQSPEIMASVLNGK [I12Q],4.04
24,TVAGKHQDLKYRSPEIMASVLNGK [I12R],3.58

row,Variant,protein stability index
1,TVAGKHQDLKYSSPEIMASVLNGK [I12S],3.91
2,TVAGKHQDLKYTSPEIMASVLNGK [I12T],3.76
3,TVAGKHQDLKYVSPEIMASVLNGK [I12V],3.71
4,TVAGKHQDLKYWSPEIMASVLNGK [I12W],2.64
5,TVAGKHQDLKYYSPEIMASVLNGK [I12Y],3.37
6,TVAGKHQDLKYIAPEIMASVLNGK [S13A],3.4
7,TVAGKHQDLKYICPEIMASVLNGK [S13C],2.43
8,TVAGKHQDLKYIDPEIMASVLNGK [S13D],3.73
9,TVAGKHQDLKYIEPEIMASVLNGK [S13E],3.69
10,TVAGKHQDLKYIFPEIMASVLNGK [S13F],2.39
11,TVAGKHQDLKYIGPEIMASVLNGK [S13G],3.37
12,TVAGKHQDLKYIHPEIMASVLNGK [S13H],2.71
13,TVAGKHQDLKYIIPEIMASVLNGK [S13I],2.19
14,TVAGKHQDLKYIKPEIMASVLNGK [S13K],3.16
15,TVAGKHQDLKYILPEIMASVLNGK [S13L],2.49
16,TVAGKHQDLKYIMPEIMASVLNGK [S13M],2.31
17,TVAGKHQDLKYINPEIMASVLNGK [S13N],3.32
18,TVAGKHQDLKYIPPEIMASVLNGK [S13P],3.12
19,TVAGKHQDLKYIQPEIMASVLNGK [S13Q],3.53
20,TVAGKHQDLKYIRPEIMASVLNGK [S13R],3.21
21,TVAGKHQDLKYITPEIMASVLNGK [S13T],3.15
22,TVAGKHQDLKYIVPEIMASVLNGK [S13V],2.65
23,TVAGKHQDLKYIWPEIMASVLNGK [S13W],2.12
24,TVAGKHQDLKYIYPEIMASVLNGK [S13Y],2.63

row,Variant,protein stability index
1,TVAGKHQDLKYISAEIMASVLNGK [P14A],2.41
2,TVAGKHQDLKYISCEIMASVLNGK [P14C],1.85
3,TVAGKHQDLKYISDEIMASVLNGK [P14D],3.4
4,TVAGKHQDLKYISEEIMASVLNGK [P14E],3.49
5,TVAGKHQDLKYISFEIMASVLNGK [P14F],2.24
6,TVAGKHQDLKYISGEIMASVLNGK [P14G],3.14
7,TVAGKHQDLKYISHEIMASVLNGK [P14H],2.19
8,TVAGKHQDLKYISIEIMASVLNGK [P14I],2.76
9,TVAGKHQDLKYISKEIMASVLNGK [P14K],2.96
10,TVAGKHQDLKYISLEIMASVLNGK [P14L],2.4
11,TVAGKHQDLKYISMEIMASVLNGK [P14M],2.02
12,TVAGKHQDLKYISNEIMASVLNGK [P14N],3.29
13,TVAGKHQDLKYISQEIMASVLNGK [P14Q],2.87
14,TVAGKHQDLKYISREIMASVLNGK [P14R],2.91
15,TVAGKHQDLKYISSEIMASVLNGK [P14S],2.55
16,TVAGKHQDLKYISTEIMASVLNGK [P14T],2.55
17,TVAGKHQDLKYISVEIMASVLNGK [P14V],2.7
18,TVAGKHQDLKYISWEIMASVLNGK [P14W],2.13
19,TVAGKHQDLKYISYEIMASVLNGK [P14Y],2.79
20,TVAGKHQDLKYISPAIMASVLNGK [E15A],2.77
21,TVAGKHQDLKYISPCIMASVLNGK [E15C],2.25
22,TVAGKHQDLKYISPDIMASVLNGK [E15D],3.42
